Each block holds one molecule with its values, some of them ahead of it. Ends that are not written are not given here.
Tests used:
HCT116 cells [1] = test: Cytotoxicity, WST-8 assay in HCT116 cells; assay type: cell-based, human; conditions: 0, 1.25, 2.5, 5, 10 μM, 4 hours
Protocol: The cytotoxicity of the G2 Janus-type dendritic polyelectrolyte zwitterions according to the present disclosure (JDPZ, (+M)2(−M)2 conjugate_1) was analyzed using HCT116 cells (human colon cancer cells). Specifically, HCT116 cells were subcultured in DMEM supplemented with 10% FBS (fetal bovine serum), dispensed into each well at 1×10^4 cells/well, and cultured at 37° C. for 24 hours. The cells were treated with the samples (Example 5-1 and Comparative Examples 1-1 to 1-3) at various concentrations (0, 1.25, 2.5, 5, 10 μM), respectively, and incubated at 37° C. for 4 hours. WST-8 solution was added to the cultured cells, and absorbance was measured at 450 nm with a microplate reader (Perkin-Elmer, USA) 4 hours later.

HCT116 cells [2] = test: Intracellular delivery efficiency in HCT116 cells by flow cytometry; assay type: cell-based, human; conditions: summary statement, b342
Protocol: To confirm the intracellular delivery efficiency, HCT116 cells were subcultured in DMEM supplemented with 10% FBS (fetal bovine serum), dispensed into each well at 1-3×10^4 cells/well, and cultured at 37° C. for 24 hours. The cells were treated with the (+6)2(−6)2 conjugate_FAM prepared in Example 6-2 at a concentration of 10 μM and incubated at 37° C. for 4 hours. Afterwards, the cells were washed with Dulbecco's phosphate-buffered saline (DPBS), trypsinized, resuspended in DPBS supplemented with 10% cell dissociation buffer (GIBCO) and 1% FBS, and then analyzed using a flow cytometer (BD LSR II SORT flow cytometer, BD Bioscience, USA) for analysis of intracellular fluorescence.

yeast rRNA = test: EMSA of non-fouling property for rRNA; assay type: binding; conditions: 200 ng yeast rRNA; various peptide/RNA (w/w) ratios; room temperature 1 hour
Protocol: It was confirmed through EMSA (electrophoretic mobility shift assay) that the dendrimer structure of the present disclosure has non-fouling property for various genetic materials present in the body when administered in vivo. 200 ng of yeast rRNA (ribosomal RNA) was prepared as a model genetic material and mixed with the Janus-type dendritic polyelectrolyte zwitterion of Example 5-4 (JDPZ ((+6)2(−6)2 conjugate_1)) at various concentration ratios. The mixing ratio was peptide/RNA ratio, wherein the peptide/RNA ratio was peptide/RNA (w/w). After reacting the mixture at room temperature for 1 hour, electrophoresis was performed on a 2% agarose gel at 90 V for 100 minutes. For visualization, the bands were stained with SYBR Gold nucleic acid gel stain (Invitrogen, USA).
The Janus-type dendrimer structure of Comparative Example 1-2 ((+3)2(Ø3)2 conjugate) was used as a control group instead of the JDPZ of Example 5-4 ((+6)2(−6)2 conjugate_1).

BSA = BSA (Bos taurus, UniProt P02769); test: EMSA of non-fouling property for proteins (BSA); assay type: binding
Text: The mixing ratio was R/B ratio, wherein the R/B ratio was arginine/BSA ratio. […] For visualization, the bands were stained with Coomassie brilliant blue R-250.
The mixing ratio was peptide/BSA ratio, wherein the peptide/BSA ratio was peptide/BSA (w/w). […] For visualization, the bands were stained with Coomassie brilliant blue R-250.

[3] = DLS size, size distribution and zeta potential; assay type: physicochemical; conditions: for Diameter (nm) in DW / Diameter (nm) in PBS: DLS
HeLa cells = test: Cytotoxicity, WST-8 assay in HeLa cells; assay type: cell-based; conditions: 0, 2, 4, 8, 16, 32, 64 and 128 μM, 4 hours
Protocol: Since DPZ contains both polyelectrolytes and zwitterions in a single molecule, it is expected to have non-fouling property and low toxicity, while also having advantageous intracellular delivery efficiency due to its interaction with the cell membrane. Cytotoxicity was analyzed first. HeLa cells were subcultured in DMEM supplemented with 10% FBS (fetal bovine serum), dispensed into each well at 1×10^4 cells/well, and cultured at 37° C. for 24 hours. The cells were treated with the samples (Examples 1-1 to 1-6 or Comparative Examples 3-1 and 3-2) at various concentrations and then cultured at 37° C. for 4 hours. WST-8 solution was added to the cultured cells, and absorbance was measured at 450 nm with a microplate reader (Perkin-Elmer, USA) 4 hours later.
Cytotoxicity was analyzed using HeLa cells. Specifically, HeLa cells were subcultured in DMEM supplemented with 10% FBS (fetal bovine serum), dispensed into each well at 1×10^4 cells/well, and cultured at 37° C. for 24 hours. The cells were treated with the samples (Examples 3-1 to 3-6) at various concentrations and then cultured at 37° C. for 4 hours. WST-8 solution was added to the cultured cells, and absorbance was measured at 450 nm with a microplate reader (Perkin-Elmer, USA) 4 hours later.

[4] = 1 μg BSA, various peptide/BSA (w/w) ratios, room temperature 1 hour

BSA, sequence (P02769 25-607): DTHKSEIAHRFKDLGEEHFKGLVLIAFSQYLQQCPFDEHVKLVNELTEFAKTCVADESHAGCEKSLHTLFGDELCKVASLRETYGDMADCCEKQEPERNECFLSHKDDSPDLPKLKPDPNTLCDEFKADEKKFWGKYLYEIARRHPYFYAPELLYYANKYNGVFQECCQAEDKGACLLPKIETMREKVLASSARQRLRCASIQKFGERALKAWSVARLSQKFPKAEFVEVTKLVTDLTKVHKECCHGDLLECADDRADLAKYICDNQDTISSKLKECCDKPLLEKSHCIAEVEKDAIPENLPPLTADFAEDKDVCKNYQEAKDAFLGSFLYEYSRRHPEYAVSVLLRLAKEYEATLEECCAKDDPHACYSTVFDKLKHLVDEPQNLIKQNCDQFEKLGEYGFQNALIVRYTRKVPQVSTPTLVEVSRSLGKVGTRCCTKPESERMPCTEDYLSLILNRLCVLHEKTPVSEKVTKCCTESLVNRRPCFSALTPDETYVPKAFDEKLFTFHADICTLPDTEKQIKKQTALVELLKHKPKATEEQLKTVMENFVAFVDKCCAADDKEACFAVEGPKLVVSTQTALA

Molecule: CC(=O)NCCCCCCCCCCCC(=O)NCCCCC(NC(=O)CCCCCCCCCCCNC(C)=O)C(=O)NCCCCC(NC(=O)C(CCCCNC(=O)CCCCCCCCCCCNC(C)=O)NC(=O)CCCCCCCCCCCNC(C)=O)C(=O)NCCCCC(NC(=O)C(CCCCNC(=O)C(CCCCNC(=O)C(CCCNC(=N)N)NC(=O)C(CCCNC(=N)N)NC(=O)C(CCCNC(=N)N)NC(C)=O)NC(=O)C(CCCNC(=N)N)NC(=O)C(CCCNC(=N)N)NC(=O)C(CCCNC(=N)N)NC(C)=O)NC(=O)C(CCCCNC(=O)C(CCCNC(=N)N)NC(=O)C(CCCNC(=N)N)NC(=O)C(CCCNC(=N)N)NC(C)=O)CC(=O)C(CCCNC(=N)N)NC(=O)C(CCCNC(=N)N)NC(=O)C(CCCNC(=N)N)NC(C)=O)C(N)=O (stereo not drawn) [Comparative Example 1-1]
cytotoxicity (HCT116 cells [1]): very high toxicity
cellular delivery efficiency (HCT116 cells [2]): high cellular delivery efficiency

binding to BSA (non-fouling property), EMSA (BSA; [4]): binds easily to BSA
Molecule: CC(=O)NCCCCCCCCCCCC(=O)NCCCCC(NC(=O)CCCCCCCCCCCNC(C)=O)C(=O)NCCCCC(NC(=O)C(CCCCNC(=O)CCCCCCCCCCCNC(C)=O)NC(=O)CCCCCCCCCCCNC(C)=O)C(=O)NCCCCC(NC(=O)C(CCCCNC(=O)C(CCCCNC(=O)C(CO)NC(=O)C(CO)NC(=O)C(CO)NC(C)=O)NC(=O)C(CCCNC(=N)N)NC(=O)C(CCCNC(=N)N)NC(=O)C(CCCNC(=N)N)NC(C)=O)NC(=O)C(CCCCNC(=O)C(CO)NC(=O)C(CO)NC(=O)C(CO)NC(C)=O)NC(=O)C(CCCNC(=N)N)NC(=O)C(NCCNC(=N)N)NC(=O)C(CCCNC(=N)N)NC(C)=O)C(N)=O (stereo not drawn) [Comparative Example 1-2, reference compound]
cytotoxicity (HCT116 cells [1]): very high toxicity
interaction with rRNA (non-fouling property), EMSA (yeast rRNA): forms a non-specific interaction with rRNA even under the low-concentration rRNA condition
Net charge [3]: +6
Zeta potential (mV) [3]: +52.8 mV
Diameter (nm) in DW [3]: 742.3 nm
Diameter (nm) in PBS [3]: 5,688.2 nm
cellular delivery efficiency (HCT116 cells [2]): high cellular delivery efficiency

Molecule: Comparative Example 3-1: peptide in which cationic and anionic amino acids are linked alternately (Ac-ERERERERERERERERERERERERERER)
cytotoxicity (HeLa cells): do not cause toxicity in the cells

binding to BSA (non-fouling property), EMSA (BSA; 0.5 μg BSA, various R/B (arginine/BSA) ratios, room temperature 12 hours): interacts with BSA and induces EMS
Molecule: linear peptide R12: linear peptide with 12 arginines, same number of cationic residues as Example 1-6 (RRRRRRRRRRRR; not fully specified (some residues))

Molecule: CC(=O)NCCCCCCCCCCCC(=O)NCCCCC(NC(=O)CCCCCCCCCCCNC(C)=O)C(=O)NCCCCC(NC(=O)C(CCCCNC(=O)CCCCCCCCCCCNC(C)=O)NC(=O)CCCCCCCCCCCNC(C)=O)C(=O)NCCCCC(NC(=O)C(CCCCNC(=O)C(CCCCNC(=O)[C@H](CCC(=O)O)NC(=O)[C@H](CCC(=O)O)NC(=O)[C@H](CCC(=O)O)NC(=O)[C@H](CCC(=O)O)NC(=O)[C@H](CCC(=O)O)NC(=O)[C@H](CCC(=O)O)NC(C)=O)NC(=O)[C@H](CCCCC(=N)N)NC(=O)[C@H](CCCNC(=N)N)NC(=O)[C@H](CCCNC(=N)N)NC(=O)[C@H](CCCNC(=N)N)NC(=O)[C@H](CCCNC(=N)N)NC(=O)[C@H](CCCNC(=N)N)NC(C)=O)NC(=O)C(CCCCNC(=O)[C@H](CCCNC(=N)N)NC(=O)[C@H](CCCNC(=N)N)NC(=O)[C@H](CCCNC(=N)N)NC(=O)[C@H](CCCNC(=N)N)NC(=O)[C@H](CCCNC(=N)N)NC(=O)[C@H](CCCNC(=N)N)NC(C)=O)NC(=O)[C@H](CCC(=O)O)NC(=O)[C@H](CCC(=O)O)NC(=O)[C@H](CCC(=O)O)NC(=O)[C@H](CCC(=O)O)NC(=O)[C@H](CCC(=O)O)NC(=O)[C@H](CCC(=O)O)NC(C)=O)C(N)=O (stereo partly drawn) [Example 5-4]
interaction with rRNA (non-fouling property), EMSA (yeast rRNA): forms interaction only under high-concentration conditions in which rRNA is present in an amount exceeding 10 times
binding to BSA (non-fouling property), EMSA (BSA; [4]): hardly binds to BSA
Net charge [3]: 0
Zeta potential (mV) [3]: +35.2 mV
Diameter (nm) in DW [3]: 649.0 nm
Diameter (nm) in PBS [3]: 128.9 nm

Molecule: CC(=O)NCCCCCCCCCCCC(=O)NCCCCC(NC(=O)CCCCCCCCCCCNC(C)=O)C(=O)NCCCCC(NC(=O)C(CCCCNC(=O)CCCCCCCCCCCNC(C)=O)NC(=O)CCCCCCCCCCCNC(C)=O)C(=O)NCCCCC(NC(=O)C(CCCCNC(=O)C(CCCCNC(=O)[C@H](CCC(=O)O)NC(=O)[C@H](CCC(=O)O)NC(=O)C(CCC(=O)O)NC(C)=O)NC(=O)[C@H](CCCCC(=N)N)NC(=O)[C@H](CCCNC(=N)N)NC(=O)[C@H](CCCNC(=N)N)NC(C)=O)NC(=O)C(CCCCNC(=O)[C@H](CCCNC(=N)N)NC(=O)[C@H](CCCNC(=N)N)NC(=O)[C@H](CCCNC(=N)N)NC(C)=O)NC(=O)[C@H](CCC(=O)O)NC(=O)[C@H](CCC(=O)O)NC(=O)[C@H](CCC(=O)O)NC(C)=O)C(N)=O (stereo partly drawn) [Example 5-1]
cytotoxicity (HCT116 cells [1]): does not exhibit cytotoxicity
Net charge [3]: 0
Zeta potential (mV) [3]: +42.3 mV
Diameter (nm) in DW [3]: 109.8 nm
Diameter (nm) in PBS [3]: 75.4 nm

Molecule: Ac-EEEEEEEEEEEERRRRRRRRRRRR-NH2 [Comparative Example 3-2]
cytotoxicity (HeLa cells): do not cause toxicity in the cells
